Test results as given in patent US20260242735A1 (UNIVERSIT T BASEL, published 2026).

Legend:
Test in all cases: flow cytometry on transfected cells, IgG
[1] = target: human CD33 I47P (human, UniProt P20138 18-364)
Description: (§1) An alanine scan on human CD33 was performed to the determine the residues on CD33 that are involved in binding to the antibodies investigated. […] Briefly, a mutation library of CD33 was created by high-throughput, site-directed mutagenesis. Each residue was individually mutated to alanine, with alanine codons mutated to serine. The mutant library was arrayed in 384-well microplates and transiently transfected into HEK293-T. Following transfection, cells were incubated with the indicated antibodies (IgG or Fab) at concentrations pre-determined using an independent immunofluorescence titration curve on wild type CD33. […] Binding of each antibody to each mutant clone was determined in duplicates. For each point, background fluorescence was subtracted from the raw data, which were then normalized to antibody reactivity with wild type CD33.
(§2) Antibodies were screened for binding to the human CD33 variants in IgG format. […] For each mutation, background fluorescence was subtracted from the raw data, which were then normalized to antibody reactivity with wild-type CD33.

[2] = target: human CD33 Y49P (human, UniProt P20138 18-364)
Description: as §1, §2

[3] = target: human CD33 P48M (human, UniProt P20138 18-364)
Description: as §1, §2

[4] = target: human CD33 Y50I (human, UniProt P20138 18-364)
Description: as §1, §2

[5] = target: human CD33 F44P (human, UniProt P20138 18-364)
Description: as §1, §2

[6] = target: human CD33 F43V (human, UniProt P20138 18-364)
Description: as §1, §2

[7] = target: human CD33 I47E (human, UniProt P20138 18-364)
Description: as §1, §2

[8] = target: human CD33 F43L (human, UniProt P20138 18-364)
Description: as §1, §2

[9] = target: human CD33 T42N (human, UniProt P20138 18-364)
Description: as §1, §2

[10] = target: human CD33 F44H (human, UniProt P20138 18-364)
Description: as §1, §2

[11] = target: human CD33 Y49C (human, UniProt P20138 18-364)
Description: as §1, §2

[12] = target: human CD33 P48K (human, UniProt P20138 18-364)
Description: as §1, §2

[13] = target: human CD33 Y49S (human, UniProt P20138 18-364)
Description: as §1, §2

[14] = target: human CD33 Y49V (human, UniProt P20138 18-364)
Description: as §1, §2

[15] = target: human CD33 P48Q (human, UniProt P20138 18-364)
Description: as §1, §2

[16] = target: human CD33 I47T (human, UniProt P20138 18-364)
Description: as §1, §2

[17] = target: human CD33 P46F (human, UniProt P20138 18-364)
Description: as §1, §2

[18] = target: human CD33 Y50N (human, UniProt P20138 18-364)
Description: as §1, §2

[19] = target: human CD33 P46H (human, UniProt P20138 18-364)
Description: as §1, §2

[20] = target: human CD33 I47Q (human, UniProt P20138 18-364)
Description: as §1, §2

[21] = target: human CD33 Y50S (human, UniProt P20138 18-364)
Description: as §1, §2

[22] = target: human CD33 T42P (human, UniProt P20138 18-364)
Description: as §1, §2

[23] = target: human CD33 Y50V (human, UniProt P20138 18-364)
Description: as §1, §2

[24] = target: human CD33 P48H (human, UniProt P20138 18-364)
Description: as §1, §2

[25] = target: human CD33 P48T (human, UniProt P20138 18-364)
Description: as §1, §2

[26] = target: human CD33 P48G (human, UniProt P20138 18-364)
Description: as §1, §2

[27] = target: human CD33 Y49R (human, UniProt P20138 18-364)
Description: as §1, §2

[28] = target: human CD33 I47W (human, UniProt P20138 18-364)
Description: as §1, §2

[29] = target: human CD33 Y50L (human, UniProt P20138 18-364)
Description: as §1, §2

[30] = target: human CD33 Y49D (human, UniProt P20138 18-364)
Description: as §1, §2

[31] = target: human CD33 Y50Q (human, UniProt P20138 18-364)
Description: as §1, §2

[32] = target: human CD33 F44Q (human, UniProt P20138 18-364)
Description: as §1, §2

[33] = target: human CD33 Y49H (human, UniProt P20138 18-364)
Description: as §1, §2

[34] = target: human CD33 P46R (human, UniProt P20138 18-364)
Description: as §1, §2

[35] = target: human CD33 P48D (human, UniProt P20138 18-364)
Description: as §1, §2

[36] = target: human CD33 I47V (human, UniProt P20138 18-364)
Description: as §1, §2

[37] = target: human CD33 F44I (human, UniProt P20138 18-364)
Description: as §1, §2

[38] = target: human CD33 P48W (human, UniProt P20138 18-364)
Description: as §1, §2

Sequence of human CD33 T42P (P20138 18-364 T42P limits assumed): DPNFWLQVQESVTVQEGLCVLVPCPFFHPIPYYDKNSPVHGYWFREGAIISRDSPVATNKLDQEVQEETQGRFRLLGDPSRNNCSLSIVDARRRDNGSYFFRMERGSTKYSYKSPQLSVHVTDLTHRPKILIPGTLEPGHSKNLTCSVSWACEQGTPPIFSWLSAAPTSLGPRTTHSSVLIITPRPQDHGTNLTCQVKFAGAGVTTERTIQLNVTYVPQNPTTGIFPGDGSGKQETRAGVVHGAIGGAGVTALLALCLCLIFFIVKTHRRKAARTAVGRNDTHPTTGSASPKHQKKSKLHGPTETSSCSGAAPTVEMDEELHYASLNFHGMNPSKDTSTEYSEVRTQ
Sequence of human CD33 P48H (P20138 18-364 P48H limits assumed): as the sequence (P20138 18-364 T42P limits assumed) above, with P25T, P31H counted along it
Sequence of human CD33 Y50L (P20138 18-364 Y50L limits assumed): as the sequence (P20138 18-364 T42P limits assumed) above, with P25T, Y33L counted along it
Sequence of human CD33 I47E (P20138 18-364 I47E limits assumed): as the sequence (P20138 18-364 T42P limits assumed) above, with P25T, I30E counted along it
Sequence of human CD33 P48Q (P20138 18-364 P48Q limits assumed): as the sequence (P20138 18-364 T42P limits assumed) above, with P25T, P31Q counted along it
Sequence of human CD33 P48M (P20138 18-364 P48M limits assumed): as the sequence (P20138 18-364 T42P limits assumed) above, with P25T, P31M counted along it
Sequence of human CD33 P48D (P20138 18-364 P48D limits assumed): as the sequence (P20138 18-364 T42P limits assumed) above, with P25T, P31D counted along it
Sequence of human CD33 Y49D (P20138 18-364 Y49D limits assumed): as the sequence (P20138 18-364 T42P limits assumed) above, with P25T, Y32D counted along it
Sequence of human CD33 I47V (P20138 18-364 I47V limits assumed): as the sequence (P20138 18-364 T42P limits assumed) above, with P25T, I30V counted along it
Sequence of human CD33 F44P (P20138 18-364 F44P limits assumed): as the sequence (P20138 18-364 T42P limits assumed) above, with P25T, F27P counted along it
Sequence of human CD33 Y49S (P20138 18-364 Y49S limits assumed): as the sequence (P20138 18-364 T42P limits assumed) above, with P25T, Y32S counted along it
Sequence of human CD33 Y50V (P20138 18-364 Y50V limits assumed): as the sequence (P20138 18-364 T42P limits assumed) above, with P25T, Y33V counted along it
Sequence of human CD33 I47P (P20138 18-364 I47P limits assumed): as the sequence (P20138 18-364 T42P limits assumed) above, with P25T, I30P counted along it
Sequence of human CD33 Y49C (P20138 18-364 Y49C limits assumed): as the sequence (P20138 18-364 T42P limits assumed) above, with P25T, Y32C counted along it

Row | Binder | Mean % WT Binding [1] [% WT binding] | Mean % WT Binding [2] [% WT binding] | Mean % WT Binding [3] [% WT binding] | Mean % WT Binding [4] [% WT binding] | Mean % WT Binding [5] [% WT binding] | Mean % WT Binding [6] [% WT binding] | Mean % WT Binding [7] [% WT binding] | Mean % WT Binding [8] [% WT binding] | Mean % WT Binding [9] [% WT binding] | Mean % WT Binding [10] [% WT binding] | Mean % WT Binding [11] [% WT binding] | Mean % WT Binding [12] [% WT binding] | Mean % WT Binding [13] [% WT binding] | Mean % WT Binding [14] [% WT binding] | Mean % WT Binding [15] [% WT binding] | Mean % WT Binding [16] [% WT binding] | Mean % WT Binding [17] [% WT binding] | Mean % WT Binding [18] [% WT binding] | Mean % WT Binding [19] [% WT binding] | Mean % WT Binding [20] [% WT binding] | further results
1 | Refmab #6 (antibody, human IgG1, V domains shown) VH: QVQLQQPGAEVVKPGASVKMSCKASGYTFTSYYIHWIKQTPGQGLEWVGVIYPGNDDISYNQKFQGKATLTADKSSTTAYMQLSSLTSEDSAVYYCAREVRLRYFDVWGQGTTVTVSS VL: EIVLTQSPGSLAVSPGERVTMSCKSSQSVFFSSSQKNYLAWYQQIPGQSPRLLIYWASTRESGVPDRFTGSGSGTDFTLTISSVQPEDLAIYYCHQYLSSRTFGQGTKLEIK | 114 | 117 | 103 | 118 | 88 | 91.8 | 122 | 87.9 | 93.5 | 91.3 | 44.7 | 89.4 | 102 | 121 | 111 | 97.2 | 92.6 | 108 | 107 | 107 | Mean % WT Binding [21]: 122 % WT binding; Mean % WT Binding [22]: 9.3 % WT binding; Mean % WT Binding [23]: 108 % WT binding; Mean % WT Binding [24]: 94.4 % WT binding; Mean % WT Binding [25]: 92.6 % WT binding; Mean % WT Binding [26]: 89 % WT binding; Mean % WT Binding [27]: 101 % WT binding; Mean % WT Binding [28]: 114 % WT binding; Mean % WT Binding [29]: 108 % WT binding; Mean % WT Binding [30]: 117 % WT binding; Mean % WT Binding [31]: 103 % WT binding; Mean % WT Binding [32]: 102 % WT binding; Mean % WT Binding [33]: 118 % WT binding; Mean % WT Binding [34]: 103 % WT binding; Mean % WT Binding [35]: 115 % WT binding; Mean % WT Binding [36]: 101 % WT binding; Mean % WT Binding [37]: 93.1 % WT binding; Mean % WT Binding [38]: 87.2 % WT binding
2 | Refmab #5 (antibody, human IgG1, V domains shown) VH: QVQLVQSGAEVKKPGASVKVSCKASGYTFTNYDINWVRQAPGQGLEWIGWIYPGDGSTKYNEKFKAKATLTADTSTSTAYMELRSLRSDDTAVYYCASGYEDAMDYWGQGTTVTVSS VL: DIQMTQSPSSLSASVGDRVTINCKASQDINSYLSWFQQKPGKAPKTLIYRANRLVDGVPSRFSGSGSGQDYTLTISSLQPEDFATYYCLQYDEFPLTFGGGTKVEIK | 4.9 | 2.2 | 31.4 | 2.5 | 114 | 82.2 | 89.1 | 96.3 | 91.1 | 117 | 0.7 | 58.7 | 0.5 | 0.9 | 2.1 | 98.4 | 62 | 3.2 | 69.8 | 94.6 | Mean % WT Binding [21]: 5.3 % WT binding; Mean % WT Binding [22]: 13.9 % WT binding; Mean % WT Binding [23]: 4.2 % WT binding; Mean % WT Binding [24]: 7.4 % WT binding; Mean % WT Binding [25]: 91.4 % WT binding; Mean % WT Binding [26]: 3.5 % WT binding; Mean % WT Binding [27]: 1 % WT binding; Mean % WT Binding [28]: 90.8 % WT binding; Mean % WT Binding [29]: 1.7 % WT binding; Mean % WT Binding [30]: 1.7 % WT binding; Mean % WT Binding [31]: 2.9 % WT binding; Mean % WT Binding [32]: 93.9 % WT binding; Mean % WT Binding [33]: 2.4 % WT binding; Mean % WT Binding [34]: 103 % WT binding; Mean % WT Binding [35]: 2.1 % WT binding; Mean % WT Binding [36]: 104 % WT binding; Mean % WT Binding [37]: 106 % WT binding; Mean % WT Binding [38]: 2.2 % WT binding
